{
  "source": "patent US20150335768A1",
  "about": "(CURATORS OF THE UNIVERSITY OF MISSOURI, published 2015)",
  "binders": {"B1": {"name": "phage-displayed p6.2 peptide WYAWML (peptide)", "chain": "WYAWML", "notes": "Only seen as phage clone; not synthesized; not shown: minor coat protein pIII of the fUSE5 (M13/fd type) bacteriophage vector; peptide inserted near the N-terminus of mature"}, "B2": {"name": "synthetic p6.1 peptide KCCYSL (peptide)", "peptide": "KCCYSL", "modifications": "not fully specified (bridges); also: present as oxidized and reduced monomer", "notes": "Chemically synthesized, not biotinylated; used in the fluorescence titration"}, "B3": {"name": "biotinylated synthetic p6.1 peptide (peptide)", "peptide": "KCCYSL", "modifications": "cysteine pairing not given here; also: biotin label, position not given here", "notes": "Biotinylated analog of KCCYSL used in immunoblot, ELISA and cell staining; also called biotinylated p6.1"}, "B4": {"name": "phage-displayed p6.1 peptide KCCYSL (peptide)", "chain": "KCCYSL", "modifications": "also: C2-C3 disulfide in the oxidized monomer fraction", "notes": "Insert of the phage clones selected from the 6-mer library F3-6; not shown: minor coat protein pIII of the fUSE5 (M13/fd type) bacteriophage vector; peptide inserted near the N-terminus of mature"}, "B5": {"name": "phage-displayed p6.3 peptide WYSWLL (peptide)", "chain": "WYSWLL", "notes": "as for B1"}},
  "key": {"[1]": {"molecular_target": "T1, recombinant extracellular domain of human ErbB-2 tagged with the FLAG epitope (human, UniProt P04626 23-652)", "T1 construct": "extracellular domain; Expressed in HEK-293 cells, purified on anti-FLAG M2; Biotinylated for biopanning; also called ErbB-2-ECD; ErbB2-ECD", "assay": "four rounds of phage display affinity selection on biotinylated ErbB-2-ECD held on streptavidin plates", "description": "Biotinylated antigen was incubated with streptavidin coated plates for 2 hours at 4° C. In first and second round of selection 10 μg of biotinylated antigen per plate was added, in third round amount of antigen was decreased to 1 μg, and for fourth round of selection 0.1 μg of antigen was used. Unoccupied biotin-binding sites were blocked with 0.1 mM biotin. Phage was incubated with antigen for 4 hrs at RT. Plates were washed 10 times with TPBS to remove unbound phage. Bound phage was eluted with elution buffer (0.1 M HCl, pH is adjusted to 2.2 with glycine, 1 mg/ml BSA, 0.1 mg/ml phenol red) at RT during 10 min. […] After each round, except the last, the eluate of the bound phage was propagated and used as input for the next round. Individual clones were characterized by DNA sequencing after the fourth round of selection.\nA random 6-amino acid peptide bacteriophage display library was affinity selected against the ErbB-2-ECD to identify novel peptide-ligands."}, "[2]": {"molecular_target": "T1, recombinant extracellular domain of …", "assay": "quenching of intrinsic tryptophan fluorescence of soluble ErbB-2-ECD titrated with peptide, 1:1 model, global fit of three protein concentrations", "quoted_text": "The titrations were performed at 25° C. with varying amounts of peptide added to a fixed ErbB-2-ECD concentration (200-600 nM) in 2 ml of phosphate buffered saline (pH=7.4). Each measurement was collected for 5-20 sec after 1-2 min pre-equilibration. The excitation shutter remained closed during pre-equilibration of the sample and was opened only during data acquisition in order to minimize photobleaching of the sample. The fluorescence measurements were corrected for dilutions and photobleaching of ErbB-2-ECD. Values reported are an average of three independent measurements. […] The fitting procedure was performed using Origin (Microcal Software Inc).\nIntrinsic tryptophan fluorescence of the protein was monitored as a function of peptide concentration. […] In the analysis, the inventors assumed a model with the stoichiometric ratio of protein to peptide equal to 1:1. The data were collected at 2 μM, 4 μM and 6 μM concentrations of the protein."}, "bovine serum albumin": {"molecular_target": "T2, bovine serum albumin (bovine, UniProt P02769 25-607)", "T2 construct": "Control protein spotted on nitrocellulose; also called BSA", "T2 sequence (P02769 25-607 limits assumed)": "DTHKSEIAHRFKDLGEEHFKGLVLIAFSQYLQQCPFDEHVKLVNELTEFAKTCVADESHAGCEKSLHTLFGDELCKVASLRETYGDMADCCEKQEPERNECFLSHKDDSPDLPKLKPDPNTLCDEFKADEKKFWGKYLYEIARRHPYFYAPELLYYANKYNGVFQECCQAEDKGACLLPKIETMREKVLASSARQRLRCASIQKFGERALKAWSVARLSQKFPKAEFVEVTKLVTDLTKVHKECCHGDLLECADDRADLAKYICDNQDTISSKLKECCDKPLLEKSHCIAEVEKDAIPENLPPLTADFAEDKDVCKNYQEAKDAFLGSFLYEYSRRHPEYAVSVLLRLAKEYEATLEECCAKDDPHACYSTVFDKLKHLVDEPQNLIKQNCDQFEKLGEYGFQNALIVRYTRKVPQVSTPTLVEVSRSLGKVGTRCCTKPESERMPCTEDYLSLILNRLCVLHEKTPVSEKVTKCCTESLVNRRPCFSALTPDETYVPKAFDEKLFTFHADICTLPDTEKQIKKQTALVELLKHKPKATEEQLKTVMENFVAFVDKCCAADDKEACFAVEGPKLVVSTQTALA", "assay": "immunoblot (dot blot) on nitrocellulose, streptavidin-alkaline phosphatase", "quoted_text": "(§1) After washing three times with PBS, the membrane was incubated with 100 μM biotinylated peptide for 2 hrs at RT."}, "bovine asialofetuin": {"molecular_target": "T3, bovine asialofetuin (bovine, UniProt P12763 19-359, desialylated glycoprotein)", "T3 construct": "Control protein spotted on nitrocellulose; also called ASF; AF", "T3 sequence (looked up)": "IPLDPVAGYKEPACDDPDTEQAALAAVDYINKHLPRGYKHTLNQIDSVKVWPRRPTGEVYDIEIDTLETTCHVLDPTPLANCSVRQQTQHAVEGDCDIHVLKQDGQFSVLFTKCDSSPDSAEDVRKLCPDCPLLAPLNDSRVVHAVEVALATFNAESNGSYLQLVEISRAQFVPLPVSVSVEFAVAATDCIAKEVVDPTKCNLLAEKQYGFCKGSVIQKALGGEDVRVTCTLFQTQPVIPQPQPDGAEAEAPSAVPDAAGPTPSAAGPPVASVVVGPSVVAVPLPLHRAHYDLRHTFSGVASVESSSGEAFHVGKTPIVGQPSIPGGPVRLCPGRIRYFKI", "assay": "immunoblot (dot blot) on nitrocellulose, streptavidin-alkaline phosphatase", "quoted_text": "as §1"}},
  "note": "Ends that are not written are not given here.",
  "data": [
    {"binder": "B1", "values": [
      {"measurement": "binding result", "setting": "[1]", "result": "binds"}
    ]},
    {"binder": "B2", "values": [
      {"measurement": "Kd", "setting": "[2]", "result": 30.2, "unit": "µM"}
    ]},
    {"binder": "B3", "values": [
      {"measurement": "binding result", "setting": "bovine serum albumin", "result": "no binding"},
      {"measurement": "binding result", "setting": "bovine asialofetuin", "result": "no binding"}
    ]},
    {"binder": "B4", "values": [
      {"measurement": "binding result", "setting": "[1]", "result": "binds"}
    ]},
    {"binder": "B5", "values": [
      {"measurement": "binding result", "setting": "[1]", "result": "binds"}
    ]}
  ]
}
